The record followed here is paper PMC9171630 (Proceedings of the National Academy of Sciences of the …, 2022).

Sequences and labels used below:
B1: S431A/T432A KaiC mutant (KaiC-AA) (enzyme)
chain: MTSAEMTSPNNNSEHQAIAKMRTMIEGFDDISHGGLPIGRSTLVSGTSGTGKTLFSIQFLYNGIIEFDEPGVFVTFEETPQDIIKNARSFGWDLAKLVDEGKLFILDASPDPEGQEVVGGFDLSALIERINYAIQKYRARRVSIDSVTSVFQQYDASSVVRRELFRLVARLKQIGATTVMTTERIEEYGPIARYGVEEFVSDNVVILRNVLEGERRRRTLEILKLRGTSHMKGEYPFTITDHGINIFPLGAMRLTQRSSNVRVSSGVVRLDEMCGGGFFKDSIILATGATGTGKTLLVSRFVENACANKERAILFAYEESRAQLLRNAYSWGMDFEEMERQNLLKIVCAYPESAGLEDHLQIIKSEINDFKPARIAIDSLSALARGVSNNAFRQFVIGVTGYAKQEEITGLFTNTSDQFMGAHSITDSHIAAITDTIILLQYVEIRGEMSRAINVFKMRGSWHDKAIREFMISDKGPDIKDSFRNFERIISGSPTRITVDEKSELSRIVRGVQEKGPES
B2: KaiA (natural protein)
chain: MLSQIAICIWVESTAILQDCQRALSADRYQLQVCESGEMLLEYAQTHRDQIDCLILVAANPSFRAVVQQLCFEGVVVPAIVVGDRDSEDPDEPAKEQLYHSAELHLGIHQLEQLPYQVDAALAEFLRLAPVETMADHIMLMGANHDPELSSQQRDLAQRLQERLGYLGVYYKRDPDRFLRNLPAYESQKLHQAMQTSYREIVLSYFSPNSNLNQSIDNFVNMAFFADVPVTKVVEIHMELMDEFAKKLRVEGRSEDILLDYRLTLIDVIAHLCEMYRRSIPRET
B3: KaiB (natural protein)
chain: MSPRKTYILKLYVAGNTPNSVRALKTLKNILEVEFQGVYALKVIDVLKNPQLAEEDKILATPTLAKVLPLPVRRIIGDLSDREKVLIGLDLLYGELQDSDDF

The data set “crystal structure” concerns the molecule itself. Put plainly: crystal structure.
The target in data set [1] is T1, KaiB–KaiC^Δ505-ST complex (preformed) ( | Synechococcus elongatus …, UniProt Q79PF5;Q79PF4).
T1 sequence 1: B3 chain
T1 sequence 2: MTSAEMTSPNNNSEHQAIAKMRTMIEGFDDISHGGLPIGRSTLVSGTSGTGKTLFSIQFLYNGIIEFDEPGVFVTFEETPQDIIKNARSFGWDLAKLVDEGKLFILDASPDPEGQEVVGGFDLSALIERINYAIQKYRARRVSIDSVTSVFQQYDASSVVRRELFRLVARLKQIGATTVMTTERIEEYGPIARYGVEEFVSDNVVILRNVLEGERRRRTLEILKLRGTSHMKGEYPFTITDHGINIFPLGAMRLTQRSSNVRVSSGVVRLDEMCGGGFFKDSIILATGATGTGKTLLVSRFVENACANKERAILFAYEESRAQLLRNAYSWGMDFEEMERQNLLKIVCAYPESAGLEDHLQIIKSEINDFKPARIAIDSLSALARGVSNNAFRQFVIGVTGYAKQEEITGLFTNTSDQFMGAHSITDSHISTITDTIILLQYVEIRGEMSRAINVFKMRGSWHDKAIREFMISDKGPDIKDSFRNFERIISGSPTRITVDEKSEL
Put plainly: SEC-MALS. In general terms: In gel filtration, larger molecules generally elute earlier.

Data set [2] has as its target T2, KaiB–KaiC-ST complex (preformed for 48 h) ( | Synechococcus elongatus …, UniProt Q79PF5;Q79PF4).
T2 sequence 1: B3 chain
T2 sequence 2: B1 chain with A431S, A432T
In words: SEC-MALS.

The target in a further data set is T3, KaiC^E357Q-AA (Synechococcus elongatus PCC 7942, UniProt Q79PF4 1-519, E357Q | S431A | T432A).
T3 sequence: B1 chain with E357Q
In words: native gel or EMSA. (A gel shift assay detects complexes by their altered migration in electrophoresis.)

The data set “KaiA” has as its target B2. In words: SEC-MALS.

As a reminder, the stoichiometry N is the number of molecules, sites or subunits per partner or assembly.

Where a chain is given by its changes, count along the chain named. Names may count otherwise.

As to B1, in “crystal structure”, the “stoichiometry N” value is 6.
As to B2, the binding result in data set [1] and in data set [2] was “binds” in each case.
For B3, the binding result with KaiC^E357Q-AA and with KaiA was “binds” in each case.
